Our source for the response values is paper PMC5333157 (2017).

B1: ERK4 (wild-type), GAL4 activation domain fusion [not stated] / DUSP2 (wild-type), GAL4 DNA-binding domain fusion [human] (parent complex)
chain 1: MAEKGDCIASVYGYDLGGRFVDFQPLGFGVNGLVLSAVDSRACRKVAVKKIALSDARSMKHALREIKIIRRLDHDNIVKVYEVLGPKGTDLQGELFKFSVAYIVQEYMETDLARLLEQGTLAEEHAKLFMYQLLRGLKYIHSANVLHRDLKPANIFISTEDLVLKIGDFGLARIVDQHYSHKGYLSEGLVTKWYRSPRLLLSPNNYTKAIDMWAAGCILAEMLTGRMLFAGAHELEQMQLILETIPVIREEDKDELLRVMPSFVSSTWEVKRPLRKLLPEVNSEAIDFLEKILTFNPMDRLTAEMGLQHPYMSPYSCPEDEPTSQHPFRIEDEIDDIVLMAANQSQLSNWDTCSSRYPVSLSSDLEWRPDRCQDASEVQRDPRAGSAPLAEDVQVDPRKDSHSSSERFLEQSHSSMERAFEADYGRSCDYKVGSPSYLDKLLWRDNKPHHYSEPKLILDLSHWKQAAGAPPTATGLADTGAREDEPASLFLEIAQWVKSTQGGPEHASPPADDPERRLSASPPGRPAPVDGGASPQFDLDVFISRALKLCTKPEDLPDNKLGDLNGACIPEHPGDLVQTEAFSKERW
chain 2: MGLEAARELECAALGTLLRDPREAERTLLLDCRPFLAFCRRHVRAARPVPWNALLRRRARGPPAAVLACLLPDRALRTRLVRGELARAVVLDEGSASVAELRPDSPAHVLLAALLHETRAGPTAVYFLRGGFDGFQGCCPDLCSEAPAPALPPTGDKTSRSDSRAPVYDQGGPVEILPYLFLGSCSHSSDLQGLQACGITAVLNVSASCPNHFEGLFRYKSIPVEDNQMVEISAWFQEAIGFIDWVKNSGGRVLVHCQAGISRSATICLAYLMQSRRVRLDEAFDFVKQRRGVISPNFSFMGQLLQFETQVLCH

In the assay the parent is B1. In words: yeast two-hybrid, β-galactosidase reporter assay; triplicate; read off a plot. In general terms: In a reporter assay the amount or activity of a reporter protein is the signal.
Take chain 1 D320N: the response is approximately 16.
